Measured values reported in the DeepSol protein solubility set.

Assay: soluble on expression in E. coli; label from the status in PepcDB or PDB records

Sequence	soluble on expression in E. coli
MGPLWLDVAGYELSAEDRAILAHPTVGGVILFGRNYHDNQQLLALNKAIRQAAARPILIGVDQEGGRVQRFREGFSRIPPAQYYARAENGVELAEQGGWLMAAELIAHDVDLSFAPVLDMGFACKAIGNRAFGEDVQTVLKHSSAFLRGMKAVGMATTGKHFPGHGAVIADSHLETPYDERETIAQDMAIFRAQIEAGVLDAMMPAHVVYPHYDAQPASGSSYWLKQVLREELGFKGIVFSDDLSMEGAAVMGGPVERSHQALVAGCDMILICNKREAAVEVLDNLPIMEVPQAEALLKKQQFSYSELKRLERWQQASANMQRLIEQFSEHHHHHHHHHH	soluble
MGQAGKQVAPVKCKGWAVEKPALKWSTDAVRLSDVTVPAPDPTQIRVRVYAASINPVDWKRVMFPASGSGPGVAGSALKGFKGMHHKPPNYPYPYVVGVDGAGEVESVGRKVTGLKAGDRVMFHSSLTNAHGGSLCEYAVMEESVAVPIPADGARPFSYEEAAAIPCATWTAYVALFDKLRIEPGRSIFVDGASGAVGSCAVQLAHHMGLYVFASCSPSNADYVRSIGADQVLNYHDGIEMVDQILDATEGYGVDYYLAVTNTQDAESFTDALRFGGAVCLLSGVLIPNSNVLFRRQLSVHYVFLNGLHGHPLTRPQLRYIGDQVAKLYQSGAFRLD	not soluble
MGQLVDGVWHDTWYETKSTGGHFKRSESAFRNWVTPDGAPGLTGKGGFPAQSGRYHLYVSLACPWAHRTLLMRQLKGLEDHIAVSVVHPLMLDHGWTFGTDFEAATGDSLYQHEFLYQLYLHAKPDYSGRVTVPVLWDTEQHTVVSNESADIIRMLNSAFDGVGAIAGDYYPEALRTQIDELNSWIYDKVNNGVYKAGFATTQSAYDESASTVFAALSDLETILAKQRYLTGEQLTEADLRLWTTLIRFDPVYHTHFKCDKYRLSDYPNLFGFLRDIYQMPGIAETVDMAHIRHHYYRSHGLEHHHHHH	not soluble
MGQTTEAQSLKYGEREIENGELITFPNPRPGRRYTINITLPEYTCKCPFSGYPDFATIYITYVPDQKVVELKAIKLYINSYRDRYISHEEAVNQILDDLVAACDPLEMTIKGDYQPRGNVHTVIEVTHTKEQA	not soluble
MGRGEHKEHKRKRSRSKERKRSRSRSPRGSREHREHRDRDRDRERRRERDTDREKTRDREKQRDAEKKKEKESKTAIFEMEESRNDTEEVMKMKEAELLQGVERRRRNVEKWRAQKKKEELDLQSEQSDEKSEKKPWNLEDEDDEDEFDIKNEGISEENPVKMEEKVEKMDTDDEEDPLDAFMKEIATKNAKKTGNSTQKASGIVTIVQEEKPEPEKGQVLENEDNMDMVIDDFDIETAAASLCHKGRMLAQTDHSKVYYRKFKKNFYIETEEIRRMTKAEVKAYREELDSITVKGIDCPKPIKTWAQCGVNLKMMNVLKKFEYSKPTSIQAQAIPSIMSGRDVIGIAKTGSGKTLAFLLPMFRHILDQPELEEGDGPIAVILAPTRELAMQTYKEANKFAKPLGLKVACTYGGVGISEQIADLKRGAEIVVCTPGRMIDVLAANSGKVTNLRRVTYLVLDEADRMFDKGFEPQIMKVVNNIRPDKQTVLFSATFPRHMEALARKVLDKPVEILVGGKSVVCSDITQNAVICAEHQKFLKLLELLGMYYEEGSSIVFVDKQEKADDIVDQLMRTGYNSVAPLHGGIDQHDRDSSIADFKTGVIKVLVATSVAARGLDVKNLILVVNYDCPNHYEDYVHRVGRTGRAGRKGYAYTFVLPEHQEKMAGEICRAFETAGCKPPADLKAMFERFKSEMAAEGKEVKLGGKGFEGSGYKYDEGEAEADANKKRMTRLTAQLQRGGTQARYKV	not soluble
MGSDKIHHHHHHAAEGRKDFNLYTLVPGSATVVLETDDLAGMIQGINELSCSKDRHFLYVSKLFSYLKLHLYTLLEDTPHGLSKQMNKVLLSFHEPDNDRNQVLYCSLGNGDYELVEKFIRKYCSSSFPSKLFDYKGEEIRIYPMPDDSFLACYFTSDFLVVSYQKKLIEQVIDARLSKKSLLTDASFAKVHEDKRARVAATIYARMQPLSMGKATDGIRSCTQLGGWTEFDMKMNGDAIYFSGVSHDTDTCLTFMNVLRQQQPVEDFPGDILPASTFFFNKRSVTDMQAMLDFTARQEYTTSTYSDYIRDRDGELLAYLKENAGGEIVTCLFHSTDTLSNPCAVMSIPLRDGQQAERVLQGMLRTAPKEVDGPPKPRTTFCKTPLRAYTLYVLPRNTLFTQLTGITESALYIYACFYEGRLVLAPDVESLTAYLRHLDKKEILDDTPGYEEAVVNLSPSYNFMMVADLGETFSQPENYVRLIPAFFFRNQEFFRHFILSAQFTCTDGIVYPNVVLIYKGESDDVS	not soluble
MGSDKIHHHHHHAAPAPQAPALPANLTTRTWVLTDLAPGGKLRRVTGERPTLTWTVQPGGLQLSGSTGCNTYRGPATVTGQQLKVSALATTRRGCAPTQAQQENDFLTLLRGASHYRLSGQTLTVYAASTARLVFTAAPGGSMTTPSNTPAGANTPTGTTLKAAQLAGDWQLTDLREGGQAVTLPADAPFTFTASGTNTLRLSGMAGCNRLMGEVTLSGAGLTFGPLAATRMACEDMTAEQALSRVLQGSGQVTLKGDTLTWHRSGGEVVLTRRAPAATTADLSGSYRLLSVNGTAADARRTVSLTFKAGQVGGFDGCNSFGGEYSLDKAGHLTAGNLVTTLRACPDQLDQPILTALLGQAPTVQLRGRTLTLDAGGERWVFERE	not soluble
MGSDKIHHHHHHAATHAKTTKTVKTTGGAKTKAAKAKAIKSTSTHIKLQGASNARDLGGYVNRHGQKIKAHRLIRANSLSHLTKADQTKLVKTYHVATDVDLRTTTEQKMSPDVHMAGVKLVKANVFKSFGAFPDFSKKGAGAKMMEKTYHDAVTTAQGRKAYKSLFHQLLINPKGKAVLWHCSAGKDRAGMGTALVLSALKFDKKAIAQDYLKSNTYLAQTNKENLQKMEAGWKAQGKEVTPIVVENFRAQNAVKMAYLNTMYKAIDAKYGNMDNFLHKGLGLSNTQLKQLQANYLTSAK	not soluble
MGSDKIHHHHHHAAVTKTTWSDAPAREFVFVENNSDDNFFVTPGGALDPRMTGANRWTGLKYTGSGTIYQQSLGYIDNGYNTGLNANWKFDMWLENSPVSHPLTGLRCINWYAGCDMATSLILPQTTDASGFYGATVTSGGAKWMHGMMSDAFYQYLQQMPVGGSFTMTINACQTSVNYDASSGARCKDQASGNWYVRNVTHTKAANLRLINTHSLAEVFINSDGVPTLGEGNADCRTQTIGSRSGLSCKMVNYTLQTNGLSNTSIHIFPAIANSSLASAVGAYDMQFSLNGSSWKPVSNTAYYYTFNEMKSSDSIYVFFSSNFFKQMVNLGISDINTKDLFNFRFQNTTSPESGWYEFSTSNTLIIKPRDFSISIISDEYTSAPSREGYVGSGEPALDFGYIVTTSGKTAADEVLIKVTGPAQVIGGRSYCLFSSDDGTAKVPFPATLSFITRSGTTQTYDAGCDDSWRDMTDALWLTTPWTDISGEVGQMDKTTVKFSIPMDNAISLRTVDDNGWFGEVSASGEIHVQATWRNIN	not soluble
MGSDKIHHHHHHACDDYLDDVPKGQKIPKTWEDYNAFIRNNFSYHFLDPDQLAVLAGDIFKLPSAVTSPSLTRANYYADESVNRIDLMTGNDKNPYFNAYEGLFAWNLIVEDVPDATECTEVQRRQLIAQGRVLRAMHYFYLANFYADQYDEATKDKLSVPLITSASVEAPSPQVTLQTIYEFMLDDLNKAVEDLPVHSESILHPNRALGYGMLARVYLSVGDYDNALKNASLALEQNDQLFNWIDLYEADKERYDDPKNYTSGVAGNPETDNVENYIYCYGSSTSGWTGLNNTSYAISPERAARFEKGDTRLLTHWKSRVSSSGIPYYAGIYALEMNKGGMRSPEMYYIKAECLARKGGEANIREAMELVNKVRKTRILLEFYQDWTAATTKEAVEKIIRDKESEYIQTQVIYCDYRRLNKDPEYARTFPRTIEGKEYILKSDSHLWIMPFPREAVSNPGNGTITQNVEK	not soluble
MGSDKIHHHHHHACDGKVYKKGDKIMFGVPKVSGYLFVRTFTKDGKISTMPKENLASQEAVIVDIPDYDKKLFEGMGVYSEVETHPLVVVELDGRRLCININDALSQGNIVSEYFKSEVEGMVDLTSDLLFVYALKLNNVTVDDDVIVRYMAHCDKNLVEKNQADPFTMADLKKEYAAKLEKALGDVDFSKVFRIESQSEMLQYDMDKQIFPLKGLWCPQIKTDQPDALAKIGFCKWDDCVFRFVNIPEFMNVPCETARAKGFYDMRKVGKVPTYNTPLATSYTYIRFLDKKVQLPEKKNKVYHNGDIKSMSLADLYGKMAIEAQIIKMDVYHLPFLKISDFELFYNYLGSIEVK	not soluble
